Among the data in PMC6082395 (Journal of molecular biology, 2018) are Kd and dH values, retold here.

This assay has as its target KIX domain of human CBP (residues 586–672) (human, UniProt Q92793 586-672). As to the kind of experiment: ITC. A general note: In ITC the heat of successive injections is recorded.

Chain of KIX domain of human CBP (residues 586–672) (Q92793 586-672): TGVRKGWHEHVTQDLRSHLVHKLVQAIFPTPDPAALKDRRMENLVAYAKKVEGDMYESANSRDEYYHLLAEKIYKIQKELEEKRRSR

B1: human WT c-Myb TAD (residues 275–327) (domain or fragment, UniProt P10242 275-327, looked up)
chain: PAAAAIQRHYNDEDPEKEKRIKELELLLMSTENELKGQQVLPTQNHTCSYPGW
As for B1, the Kd (commonly the equilibrium constant for the complex coming apart) is 0.5 ± 0.03 µM and the dH is -44.1 ± 1.67 kJ/mol.

B2: c-Myb TAD S304A (domain or fragment, human, UniProt P10242 275-327, looked up)
chain: PAAAAIQRHYNDEDPEKEKRIKELELLLMATENELKGQQVLPTQNHTCSYPGW
For the molecule B2, the Kd was determined as 0.38 ± 0.04 µM and the dH was -29 ± 2.13 kJ/mol.

B3: c-Myb TAD S304V (domain or fragment, human, UniProt P10242 275-327, looked up)
chain: PAAAAIQRHYNDEDPEKEKRIKELELLLMVTENELKGQQVLPTQNHTCSYPGW
B3 returned a Kd of 1.49 ± 0.29 µM and a dH of -35.1 ± 3.89 kJ/mol.

B4: c-Myb TAD L300A (domain or fragment, human, UniProt P10242 275-327, looked up)
chain: PAAAAIQRHYNDEDPEKEKRIKELEALLMSTENELKGQQVLPTQNHTCSYPGW
Regarding B4, the Kd worked out at 0.67 ± 0.08 µM and the dH is -38.7 ± 1.63 kJ/mol.

B5: c-Myb TAD K293H (domain or fragment, human, UniProt P10242 275-327, looked up)
chain: PAAAAIQRHYNDEDPEKEHRIKELELLLMSTENELKGQQVLPTQNHTCSYPGW
B5 yielded a Kd of 0.78 ± 0.06 µM and a dH of -46.4 ± 8.79 kJ/mol.

B6: c-Myb TAD P289A (domain or fragment, human, UniProt P10242 275-327, looked up)
chain: PAAAAIQRHYNDEDAEKEKRIKELELLLMSTENELKGQQVLPTQNHTCSYPGW
Take B6: the Kd is 0.62 ± 0.02 µM and the dH is -42.6 ± 1.13 kJ/mol.

B7: c-Myb TAD S304P (domain or fragment, human, UniProt P10242 275-327, looked up)
chain: PAAAAIQRHYNDEDPEKEKRIKELELLLMPTENELKGQQVLPTQNHTCSYPGW
B7 had a Kd of 3.45 ± 0.5 µM and a dH of -30.8 ± 4.06 kJ/mol.

B8: c-Myb TAD L300P (domain or fragment, human, UniProt P10242 275-327, looked up)
chain: PAAAAIQRHYNDEDPEKEKRIKELEPLLMSTENELKGQQVLPTQNHTCSYPGW
B8: binding was put at a Kd of 290 ± 101 µM and the dH was -5.61 ± 1.21 kJ/mol.

B9: c-Myb TAD N307A (domain or fragment, human, UniProt P10242 275-327, looked up)
chain: PAAAAIQRHYNDEDPEKEKRIKELELLLMSTEAELKGQQVLPTQNHTCSYPGW
Regarding B9, binding was characterised by a dissociation constant (Kd) of 0.41 ± 0.07 µM and the dH was -34.7 ± 2.51 kJ/mol.

B10: c-Myb TAD G311A (domain or fragment, human, UniProt P10242 275-327, looked up)
chain: PAAAAIQRHYNDEDPEKEKRIKELELLLMSTENELKAQQVLPTQNHTCSYPGW
Take B10: the affinity, expressed as Kd, was 0.46 ± 0.03 µM and the dH was -42.3 ± 1.09 kJ/mol.

B11: c-Myb TAD K296H (domain or fragment, human, UniProt P10242 275-327, looked up)
chain: PAAAAIQRHYNDEDPEKEKRIHELELLLMSTENELKGQQVLPTQNHTCSYPGW
Take B11: the affinity, expressed as Kd, was 0.87 ± 0.05 µM and the dH is -57.6 ± 2.01 kJ/mol.

B12: c-Myb TAD N307V (domain or fragment, human, UniProt P10242 275-327, looked up)
chain: PAAAAIQRHYNDEDPEKEKRIKELELLLMSTEVELKGQQVLPTQNHTCSYPGW
In turn, B12 had a Kd of 0.39 µM and a dH of -35.31 ± 0.167 kJ/mol.

B13: c-Myb TAD N307G (domain or fragment, human, UniProt P10242 275-327, looked up)
chain: PAAAAIQRHYNDEDPEKEKRIKELELLLMSTEGELKGQQVLPTQNHTCSYPGW
On to B13, for which binding was characterised by a dissociation constant (Kd) of 0.61 ± 0.04 µM and the dH was -38.7 ± 0.962 kJ/mol.

B14: c-Myb TAD L300G (domain or fragment, human, UniProt P10242 275-327, looked up)
chain: PAAAAIQRHYNDEDPEKEKRIKELEGLLMSTENELKGQQVLPTQNHTCSYPGW
B14 returned a Kd of 2.24 ± 0.02 µM and a dH of -47.4 ± 0.167 kJ/mol.

B15: c-Myb TAD P289A/P316A (domain or fragment, human, UniProt P10242 275-327, looked up)
chain: PAAAAIQRHYNDEDAEKEKRIKELELLLMSTENELKGQQVLATQNHTCSYPGW
Regarding B15, the Kd was determined as 0.53 ± 0.02 µM and the dH was -41 ± 0.418 kJ/mol.

B16: c-Myb TAD S304G (domain or fragment, human, UniProt P10242 275-327, looked up)
chain: PAAAAIQRHYNDEDPEKEKRIKELELLLMGTENELKGQQVLPTQNHTCSYPGW
The molecule B16 gave a Kd of 0.71 ± 0.13 µM and a dH of -55.6 ± 11.3 kJ/mol.

B17: c-Myb TAD E292D (domain or fragment, human, UniProt P10242 275-327, looked up)
chain: PAAAAIQRHYNDEDPEKDKRIKELELLLMSTENELKGQQVLPTQNHTCSYPGW
In turn, B17 gave a Kd of 0.63 ± 0.02 µM and a dH of -46.94 ± 0.209 kJ/mol.

B18: c-Myb TAD N307P (domain or fragment, human, UniProt P10242 275-327, looked up)
chain: PAAAAIQRHYNDEDPEKEKRIKELELLLMSTEPELKGQQVLPTQNHTCSYPGW
B18 registered a Kd of 0.95 ± 0.07 µM and a dH of -37.5 ± 1.34 kJ/mol.

B19: c-Myb TAD L300V (domain or fragment, human, UniProt P10242 275-327, looked up)
chain: PAAAAIQRHYNDEDPEKEKRIKELEVLLMSTENELKGQQVLPTQNHTCSYPGW
Take B19: the dissociation constant Kd is 0.82 ± 0.05 µM and the dH was -47.61 ± 0.46 kJ/mol.
